Reference: paper PMC7041945, “Misfolded proteins bind and activate death receptor 5 to trigger apoptosis during unresolved endoplasmic reticulum stress” (eLife, 2020)

What was measured:
HCT116 cells [1] = test: Trypan blue staining, automated cell counting; format: cell-based, Homo sapiens; set-up: key to Trypan blue- / Trypan blue+ / avg Trypan blue- / avg Trypan blue+: % of cells (Trypan blue positive or negative); conditions: for avg Trypan blue+ / avg Trypan blue-: avg of Rep 1-3; for Dead concentration / Live concentration / Total Concentration / Viability (%): BF
Procedure: Cells seeded in a 6-well plate were transfected with the specified plasmid for 24 hr and harvested via trypsinization in complete media and ultimately resuspended in 400 μl of media to obtain a concentration of 1.0–3.0 × 10^6 cells/ml. The cell suspension was then mixed 1:1 with 0.4% Trypan blue (Sigma-Aldrich) and incubated at 37°C for 30 min. The percentage of cells staining positive for was then quantified using the Countess II FL Automated Cell Counter (ThermoFisher, catalog # AMQAF1000) default brightfield settings with disposable slides.

HCT116 cells [2] = test: Annexin V (and SytoxBlue) flow cytometry for apoptosis; format: cell-based, Homo sapiens; conditions: for Mean ± SEM (Fig 1S2D): n=3
Procedure: Cells seeded in a 6-well plate were transfected with the specified plasmid for 24 hr and harvested via trypsinization in complete media to allow a 30 min recovery at 37°C. The samples were then centrifuged at 500xg for 5 min and resuspended In 150 μl of a 1:20 dilution of Annexin V-AlexaFluor 647 conjugate (Thermo Scientific #A23204). Samples were transferred to a 96-well U-bottom plate and incubated in the dark for 15 min at RT. The distribution of apoptotic cells was determined by flow cytometry on a BD LSR II.

[3] = hct chop 62, biological replicate 1 (05.22.2019)
[4] = hct chop 125 (ng), biological replicate 1 (05.22.2019)
[5] = hct chop 125 (ng), biological replicate 2 (05.24.2019)
[6] = hct chop 125 (ng), biological replicate 3 (05.24.2019)
[7] = hct chop 250 (ng), biological replicate 1 (05.22.2019)
[8] = hct chop 250 (ng), biological replicate 2 (05.24.2019)
[9] = hct chop 250 (ng), biological replicate 3 (05.24.2019)
[10] = hct chop 500 (ng), biological replicate 1 (05.22.2019)
[11] = hct chop 500 (ng), biological replicate 2 (05.24.2019)
[12] = hct chop 500 (ng), biological replicate 3 (05.24.2019)
[13] = hct chop 1000 (ng), biological replicate 1 (05.24.2019)
[14] = hct chop 1000 (ng), biological replicate 2 (05.24.2019)
[15] = hct chop 1000 (ng), biological replicate 3 (05.24.2019)

B1: CHOP: CHOP (canonical isoform) expression vector, expression of CHOP in absence of ER stress (protein, UniProt P35638 1-169, looked up)
DNA damage-inducible …: MAAESLPFSFGTLSSWELEAWYEDLQEVLSSDENGGTYVSPPGNEEEESKIFTTLDPASLAWLTEEEPEPAEVTSTSQSPHSPDSSQSSLAQEEEEEDQGRTRKRKQSGHSPARAGKQRMKEKEQENERKVAQLAEENERLKQEIERLTREVEATRRALIDRMVNLHQA
modifications: expression vector
notes: CHOP (canonical isoform) expression vector, expression of CHOP in absence of ER stress
Trypan blue+ (HCT116 cells [1]; CHOP - 125 ng, Rep 1): 4.216 | Trypan blue- (HCT116 cells [1]; CHOP - 125 ng, Rep 1): 95.7841 | Trypan blue+ (HCT116 cells [1]; CHOP - 125 ng, Rep 2): 3.766 | Trypan blue- (HCT116 cells [1]; CHOP - 125 ng, Rep 2): 96.2338 | Trypan blue+ (HCT116 cells [1]; CHOP - 125 ng, Rep 3): 4.155 | Trypan blue- (HCT116 cells [1]; CHOP - 125 ng, Rep 3): 95.8447 | avg Trypan blue+ (HCT116 cells [1]; CHOP - 125 ng): 4.046 | avg Trypan blue- (HCT116 cells [1]; CHOP - 125 ng): 95.9542 | Trypan blue+ (HCT116 cells [1]; CHOP - 250 ng, Rep 1): 6.303 | Trypan blue- (HCT116 cells [1]; CHOP - 250 ng, Rep 1): 93.6968 | Trypan blue+ (HCT116 cells [1]; CHOP - 250 ng, Rep 2): 12.2829 | Trypan blue- (HCT116 cells [1]; CHOP - 250 ng, Rep 2): 87.7171 | Trypan blue+ (HCT116 cells [1]; CHOP - 250 ng, Rep 3): 5.723 | Trypan blue- (HCT116 cells [1]; CHOP - 250 ng, Rep 3): 94.2771 | avg Trypan blue+ (HCT116 cells [1]; CHOP - 250 ng): 8.103 | avg Trypan blue- (HCT116 cells [1]; CHOP - 250 ng): 91.897 | Trypan blue+ (HCT116 cells [1]; CHOP - 500 ng, Rep 1): 14.1844 | Trypan blue- (HCT116 cells [1]; CHOP - 500 ng, Rep 1): 85.8156 | Trypan blue+ (HCT116 cells [1]; CHOP - 500 ng, Rep 2): 6.367 | Trypan blue- (HCT116 cells [1]; CHOP - 500 ng, Rep 2): 93.633 | Trypan blue+ (HCT116 cells [1]; CHOP - 500 ng, Rep 3): 6.466 | Trypan blue- (HCT116 cells [1]; CHOP - 500 ng, Rep 3): 93.534 | avg Trypan blue+ (HCT116 cells [1]; CHOP - 500 ng): 9.006 | avg Trypan blue- (HCT116 cells [1]; CHOP - 500 ng): 90.9942 | Trypan blue+ (HCT116 cells [1]; CHOP - 1000 ng, Rep 1): 8.481 | Trypan blue- (HCT116 cells [1]; CHOP - 1000 ng, Rep 1): 91.5194 | Trypan blue+ (HCT116 cells [1]; CHOP - 1000 ng, Rep 2): 6.72 | Trypan blue- (HCT116 cells [1]; CHOP - 1000 ng, Rep 2): 93.2796 | Trypan blue+ (HCT116 cells [1]; CHOP - 1000 ng, Rep 3): 4.533 | Trypan blue- (HCT116 cells [1]; CHOP - 1000 ng, Rep 3): 95.4674 | avg Trypan blue+ (HCT116 cells [1]; CHOP - 1000 ng): 6.578 | avg Trypan blue- (HCT116 cells [1]; CHOP - 1000 ng): 93.4221 | PARP cleavage and trypan blue staining vs misfolded-protein stress (HCT116 cells [1]; comparable CHOP-induced DR5 protein, no ER stress): drastically lower levels of PARP cleavage and trypan blue staining | Dead concentration (HCT116 cells [1]; [3]): 1.35E+05 | Live concentration (HCT116 cells [1]; [3]): 2.23E+06 | Total Concentration (HCT116 cells [1]; [3]): 2.36E+06 | Viability (%) (HCT116 cells [1]; [3]): 94.2928% | Dead concentration (HCT116 cells [1]; [4]): 1.47E+05 | Live concentration (HCT116 cells [1]; [4]): 3.33E+06 | Total Concentration (HCT116 cells [1]; [4]): 3.48E+06 | Viability (%) (HCT116 cells [1]; [4]): 95.7841% | Dead concentration (HCT116 cells [1]; [5]): 3.40E+05 | Live concentration (HCT116 cells [1]; [5]): 8.69E+06 | Total Concentration (HCT116 cells [1]; [5]): 9.03E+06 | Viability (%) (HCT116 cells [1]; [5]): 96.2338% | Dead concentration (HCT116 cells [1]; [6]): 8.03E+05 | Live concentration (HCT116 cells [1]; [6]): 1.85E+07 | Total Concentration (HCT116 cells [1]; [6]): 1.93E+07 | Viability (%) (HCT116 cells [1]; [6]): 95.8447% | Dead concentration (HCT116 cells [1]; [7]): 2.17E+05 | Live concentration (HCT116 cells [1]; [7]): 3.23E+06 | Total Concentration (HCT116 cells [1]; [7]): 3.44E+06 | Viability (%) (HCT116 cells [1]; [7]): 93.6968% | Dead concentration (HCT116 cells [1]; [8]): 5.81E+05 | Live concentration (HCT116 cells [1]; [8]): 4.15E+06 | Total Concentration (HCT116 cells [1]; [8]): 4.73E+06 | Viability (%) (HCT116 cells [1]; [8]): 87.7171% | Dead concentration (HCT116 cells [1]; [9]): 6.69E+05 | Live concentration (HCT116 cells [1]; [9]): 1.10E+07 | Total Concentration (HCT116 cells [1]; [9]): 1.17E+07 | Viability (%) (HCT116 cells [1]; [9]): 94.2771% | Dead concentration (HCT116 cells [1]; [10]): 3.52E+05 | Live concentration (HCT116 cells [1]; [10]): 2.13E+06 | Total Concentration (HCT116 cells [1]; [10]): 2.48E+06 | Viability (%) (HCT116 cells [1]; [10]): 85.8156% | Dead concentration (HCT116 cells [1]; [11]): 2.99E+05 | Live concentration (HCT116 cells [1]; [11]): 4.40E+06 | Total Concentration (HCT116 cells [1]; [11]): 4.70E+06 | Viability (%) (HCT116 cells [1]; [11]): 93.633% | Dead concentration (HCT116 cells [1]; [12]): 3.40E+05 | Live concentration (HCT116 cells [1]; [12]): 4.92E+06 | Total Concentration (HCT116 cells [1]; [12]): 5.26E+06 | Viability (%) (HCT116 cells [1]; [12]): 93.534% | Dead concentration (HCT116 cells [1]; [13]): 2.82E+05 | Live concentration (HCT116 cells [1]; [13]): 3.04E+06 | Total Concentration (HCT116 cells [1]; [13]): 3.32E+06 | Viability (%) (HCT116 cells [1]; [13]): 91.5194% | Dead concentration (HCT116 cells [1]; [14]): 2.93E+05 | Live concentration (HCT116 cells [1]; [14]): 4.07E+06 | Total Concentration (HCT116 cells [1]; [14]): 4.36E+06 | Viability (%) (HCT116 cells [1]; [14]): 93.2796% | Dead concentration (HCT116 cells [1]; [15]): 1.88E+05 | Live concentration (HCT116 cells [1]; [15]): 3.95E+06 | Total Concentration (HCT116 cells [1]; [15]): 4.14E+06 | Viability (%) (HCT116 cells [1]; [15]): 95.4674% | Difference between means (HCT116 cells [2]; CHOP - 125 ng vs. empty, Welch's correction): 0.4983 ± 1.264 | Mean ± SEM (Fig 1S2D) (HCT116 cells [2]; CHOP - 125 ng): 4.046 ± 0.1409, n=3 | Difference between means (HCT116 cells [2]; CHOP - 250 ng vs. CHOP - 125 ng, Welch's correction): 4.057 ± 2.101 | Mean ± SEM (Fig 1S2D) (HCT116 cells [2]; CHOP - 250 ng): 8.103 ± 2.097, n=3 | Difference between means (HCT116 cells [2]; CHOP - 500 ng vs. CHOP - 125 ng, Welch's correction): 4.960 ± 2.593 | Difference between means (HCT116 cells [2]; CHOP - 500 ng vs. CHOP - 250 ng, unpaired t test): 0.9028 ± 3.332 | Difference between means (HCT116 cells [2]; CHOP - 500 ng vs. MPZ-GFP, unpaired t test): -28.90 ± 5.936 | Difference between means (HCT116 cells [2]; CHOP - 500 ng vs. empty, unpaired t test): 5.458 ± 2.878 | Mean ± SEM (Fig 1S2D) (HCT116 cells [2]; CHOP - 500 ng): 9.006 ± 2.589, n=3
